Measured values as given in PMC12047440, “LINE-1 ribonucleoprotein condensates bind DNA to enable nuclear entry during mitosis” (Science Advances, 2024).
Residue numbers refer to the chain shown, from its start. In names and notes the source's numbering stands. Several values for one entry are separate records, joined by “and”; a condition that tells them apart may be missing. Equal entries are not always repeated.

Experiments:
[1] = molecular target: ΔStammer-ORF1p (human); test: mass photometry; purified ORF1p alone, landing on a glass coverslip; 300 nM ORF1p in 20 mM Hepes pH 7.5, 50 mM KCl, 1 mM MgCl2, 1 mM DTT; also a protein concentration series, a KCl series and 150 mM KCl; monomers to trimers, trimers to hexamers and higher-order oligomers
[2] = molecular target: T1, His-TEV-ORF1p (Homo sapiens, UniProt Q9UN81 1-338); test: fluorescence anisotropy; 50 mM KCl; 20 mM Hepes pH 7.5, 50 mM KCl (150 or 300 mM in Fig. S1D rows), 1 mM MgCl2, 1 mM DTT; 1 nM 6-FAM oligo; temperature not stated; conditions: protein: recombinant, tags: uncleaved N-terminal His-TEV, C-terminal ybbR, chain copies: 3
T1 chain: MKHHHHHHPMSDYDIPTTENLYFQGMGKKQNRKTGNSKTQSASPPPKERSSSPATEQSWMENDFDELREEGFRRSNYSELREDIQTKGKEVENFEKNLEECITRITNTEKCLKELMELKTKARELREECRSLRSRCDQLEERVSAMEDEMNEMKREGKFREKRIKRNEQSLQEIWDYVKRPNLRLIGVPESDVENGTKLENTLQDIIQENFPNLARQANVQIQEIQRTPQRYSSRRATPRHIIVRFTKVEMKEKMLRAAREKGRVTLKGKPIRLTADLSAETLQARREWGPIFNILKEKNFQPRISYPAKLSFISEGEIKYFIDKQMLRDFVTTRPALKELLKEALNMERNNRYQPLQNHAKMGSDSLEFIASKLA

[3] = molecular target: T2, ORF1p WT (Homo sapiens, UniProt Q9UN81 1-338); test: as above; conditions: protein: recombinant, tags: tag removed, N-terminal G left, chain copies: 3
[4] = molecular target: K3A/K4A-ORF1p (Homo sapiens, UniProt Q9UN81 1-338, K3A;K4A); test: as above; conditions: protein: recombinant, tags: tag removed, N-terminal G left, chain copies: 3
Chain of K3A/K4A-ORF1p (Q9UN81 other isoform, or with tags, fused parts or gaps K3A;K4A): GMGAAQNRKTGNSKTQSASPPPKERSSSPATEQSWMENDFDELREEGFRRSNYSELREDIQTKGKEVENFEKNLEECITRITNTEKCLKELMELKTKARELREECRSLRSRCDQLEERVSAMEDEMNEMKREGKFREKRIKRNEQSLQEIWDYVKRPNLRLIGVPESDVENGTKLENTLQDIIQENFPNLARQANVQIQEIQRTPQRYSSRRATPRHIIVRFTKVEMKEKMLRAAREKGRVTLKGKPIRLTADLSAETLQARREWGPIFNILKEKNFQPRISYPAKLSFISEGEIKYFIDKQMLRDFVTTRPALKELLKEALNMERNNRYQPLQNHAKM

[5] = molecular target: ΔStammer-ORF1p (Homo sapiens, UniProt Q9UN81 1-338, del91-93); test: as above; conditions: protein: recombinant, tags: tag removed by TEV, N-terminal G left, chain copies: 3
[6] = molecular target: T3, ORF1p WT (Homo sapiens, UniProt Q9UN81); test: mass photometry; one trimer per RNA; Anisotropy: 20 mM Hepes pH 7.5, 50 mM KCl, 1 mM MgCl2, 1 mM DTT, 1 nM 6-FAM oligo, temperature not stated; DNA curtains: 50, 150 or 300 mM KCl, RNP premix 1 min at room temperature; conditions: protein: recombinant; tags: tag removed, N-terminal G left; chain copies: 3
[7] = molecular target: the molecule itself; test: mass photometry; purified ORF1p alone, landing on a glass coverslip; 300 nM ORF1p in 20 mM Hepes pH 7.5, 50 mM KCl, 1 mM MgCl2, 1 mM DTT; also a protein concentration series, a KCl series and 150 mM KCl; monomers to trimers, trimers to hexamers and higher-order oligomers
[8] = molecular target: T3, ORF1p WT; test: mass photometry; two-trimer peak more prominent; Anisotropy: 20 mM Hepes pH 7.5, 50 mM KCl, 1 mM MgCl2, 1 mM DTT, 1 nM 6-FAM oligo, temperature not stated; DNA curtains: 50, 150 or 300 mM KCl, RNP premix 1 min at room temperature; conditions: protein: recombinant; tags: tag removed, N-terminal G left; chain copies: 3
[9] = molecular target: T3, ORF1p WT; test: mass photometry; second peak, two trimers per RNA; Anisotropy: 20 mM Hepes pH 7.5, 50 mM KCl, 1 mM MgCl2, 1 mM DTT, 1 nM 6-FAM oligo, temperature not stated; DNA curtains: 50, 150 or 300 mM KCl, RNP premix 1 min at room temperature; conditions: protein: recombinant; tags: tag removed, N-terminal G left; chain copies: 3
[10] = molecular target: T2, ORF1p WT; test: fluorescence anisotropy; 150 mM KCl; 20 mM Hepes pH 7.5, 50 mM KCl (150 or 300 mM in Fig. S1D rows), 1 mM MgCl2, 1 mM DTT; 1 nM 6-FAM oligo; temperature not stated; conditions: protein: recombinant; tags: tag removed, N-terminal G left; chain copies: 3; label: 5' 6-FAM (anisotropy); unstructured
[11] = molecular target: T2, ORF1p WT; test: fluorescence anisotropy; 300 mM KCl; 20 mM Hepes pH 7.5, 50 mM KCl (150 or 300 mM in Fig. S1D rows), 1 mM MgCl2, 1 mM DTT; 1 nM 6-FAM oligo; temperature not stated; conditions: protein: recombinant; tags: tag removed, N-terminal G left; chain copies: 3; label: 5' 6-FAM (anisotropy); unstructured
[12] = label: 5' 6-FAM on strand 1 (anisotropy), blunt
[13] = label: 5' 6-FAM (anisotropy), unstructured

## ΔStammer-ORF1p (natural protein)
[1]
  stoichiometry N: 6

B1: 30 bp dsDNA (dsDNA)
DNA 1: ACCATCATCAAAGACCAAAAGTAGATAAAA
DNA 2: TTTTATCTACTTTTGGTCTTTGATGATGGT
[2]; [12]
  Kd: 28.6 nM
[3]; [12]
  Kd: 18.9 nM
[4]; [12]
  Kd: 21.8 nM
[5]; [12]
  Kd: 26.6 nM

## AAAAAAAAAAAAAAAAAAAAAAAAAAAAAA (ssRNA) [30 nt poly(A)]
[3]; label: 5' 6-FAM
  Kd: 6.01 nM

B2: 60 nt RNA (ssRNA)
RNA: GGGCGAAUUGGGUACCGGGCCCCCCCUCGAGGCCGGUAGAGGUGUGGUCAAUAAGAGCGA
[6]
  binding result: binds

B3: 30 bp RNA/DNA hybrid (DNA:RNA)
RNA: ACCAUCAUCAAAGACCAAAAGUAGAUAAAA
DNA: B1 DNA 2
[3]; label: 5' 6-FAM on RNA, blunt
  Kd: 4.68 nM

B4: WT-ORF1p (LINE-1 ORF1 protein, Homo sapiens) (natural protein, human)
chain: GMGKKQNRKTGNSKTQSASPPPKERSSSPATEQSWMENDFDELREEGFRRSNYSELREDIQTKGKEVENFEKNLEECITRITNTEKCLKELMELKTKARELREECRSLRSRCDQLEERVSAMEDEMNEMKREGKFREKRIKRNEQSLQEIWDYVKRPNLRLIGVPESDVENGTKLENTLQDIIQENFPNLARQANVQIQEIQRTPQRYSSRRATPRHIIVRFTKVEMKEKMLRAAREKGRVTLKGKPIRLTADLSAETLQARREWGPIFNILKEKNFQPRISYPAKLSFISEGEIKYFIDKQMLRDFVTTRPALKELLKEALNMERNNRYQPLQNHAKM
notes: first printed residue of the construct, before the first methionine of ORF1p; left after TEV protease digestion; LINE-1 ORF1p, human, 338 residues as printed; also called pLH2087; source: E. coli BL21(DE3), purified as described previously (19); not shown: His6, N-terminal, cleaved
[7]
  stoichiometry N: 6 and 3

B5: K3A/K4A-ORF1p (natural protein, human)
chain: B4 chain with K4A, K5A
notes: first printed residue of the construct, before the first methionine of ORF1p; left after TEV protease digestion; LINE-1 ORF1p, human, with the N-terminal basic patch mutated; also called pLH2075; source: E. coli BL21(DE3), purified as described previously (19); not shown: His6, N-terminal, cleaved
[7]
  binding result: binds

## ACCATCATCAAAGACCAAAAGTAGATAAAA (ssDNA) [30 nt ssDNA]
[3]; label: 5' 6-FAM
  Kd: 8.27 nM

B6: 120 nt RNA (ssRNA)
RNA: GGGCGAAUUGGGUACCGGGCCCCCCCUCGAGGCCGGUAGAGGUGUGGUCAAUAAGAGCGACCUCAUACUAUACCUGAGAAAGCAACCUGACCUACAGGAAAGAGUUACUCAAGAAUAAGA
[8]
  binding result: binds

B7: 90 nt RNA (ssRNA)
RNA: GGGCGAAUUGGGUACCGGGCCCCCCCUCGAGGCCGGUAGAGGUGUGGUCAAUAAGAGCGACCUCAUACUAUACCUGAGAAAGCAACCUGA
[9]
  binding result: binds

## ACCAUCAUCAAAGACCAAAAGUAGAUAAAA (ssRNA) [30 nt RNA]
[10]
  Kd: 11.3 nM
[2]; [13]
  Kd: 17.7 nM
[3]; [13]
  Kd: 3.89 nM
[4]; [13]
  Kd: 11.1 nM
[5]; [13]
  Kd: 8.06 nM
[11]
  Kd: 11.9 nM
